Reference: article PMC9351521 (Proceedings of the National Academy of Sciences of the …, 2022)

Experiments:
Settings in all cases: both partners purified
[1] = molecular target: T1, SARS-CoV-2 spike receptor binding domain, His-tagged (T332-K529 with Pro-527 omitted) (SARS-CoV-2, wild-type RBD (P0DTC2 …)); assay: ITC; […]; iTC200, 25 °C, PBS; […]
T1 construct: also called RBD

[2] = molecular target: T1, SARS-CoV-2 spike receptor binding …; assay: ITC; […]; iTC200, 25 °C, PBS; […]; remark: listed apart in the source
[3] = molecular target: T2, SARS-CoV-2 spike glycoprotein ectodomain (amino acids 1 to 1,208, GSAS, PP, T4 fibritin trimerization domain) (SARS-CoV-2, P0DTC2 sequence with GSAS …, RRAR > GSAS at residues 682 to 685 | KV > PP at residues 986 to 987); assay: ITC; […]; iTC200, 25 °C, PBS; […]
T2 construct: also called trimeric spike protein

[4] = molecular target: biotinylated RBD (wild type) (SARS-CoV-2, wild-type RBD (P0DTC2 …)); assay: SPR; […]; Biacore T200, PBS pH 7.4 with 0.005% P20, 25 °C
[5] = molecular target: T3, His-tagged SARS-CoV-2 RBD T332-K529 with Pro-527 omitted (SARS-CoV-2, wild-type RBD (P0DTC2 …)); assay: ITC
T3 construct: also called isolated RBD

[6] = molecular target: T4, SARS-CoV-2 spike glycoprotein ectodomain (amino acids 1 to 1,208, RRAR > GSAS, KV > PP, T4 fibritin … (SARS-CoV-2, P0DTC2 sequence with GSAS …, RRAR > GSAS at residues 682 to 685 | KV > PP at residues 986 to 987)); assay: ITC
T4 construct: also called Spike protein; trimeric spike protein

biotinylated RBD = biotinylated RBD (SARS-CoV-2, wild-type RBD (P0DTC2 …)); assay: SPR; Biacore T200, PBS pH 7.4 with 0.005% P20, 25 °C; […]; 1:1 binding model
[7] = molecular target: T3, His-tagged SARS-CoV-2 RBD T332-K529 …; assay: crystal structure

B1: H11-A10 (VHH)
VHH: QVQLVESGGGLMQAGGSLRLSCAVSGRTFSTAAMGWFRQAPGKEREFVAAIRWSGGSAYYADSVKGRFTISRDKAKNTVYLQMNSLKYEDTAVYYCAGFSATRSLLSDYATWPYDYWGQGTQVTVSS
- stoichiometry N [1]: 1

B2: H11-B5 (VHH)
VHH: QVQLVESGGGLMQAGGSLRLSCAVSGRTFSTAAMGWFRQAPGKEREFVAAIRWSGGSAYYADSVKGRFTISRDKAKNTVYLQMNSLKYEDTAVYYCASYQATRSLLSDYATWPYDYWGQGTQVTVSS
- stoichiometry N [1]: 1

B3: H11-H4 Y104S (VHH)
VHH: QVQLVESGGGLMQAGGSLRLSCAVSGRTFSTAAMGWFRQAPGKEREFVAAIRWSGGSAYYADSVKGRFTISRDKAKNTVYLQMNSLKYEDTAVYYCAQTHYVSSLLSDYATWPYDYWGQGTQVTVSS
- stoichiometry N [1]: 1

B4: H11 V101Y R103S (VHH)
VHH: QVQLVESGGGLMQAGGSLRLSCAVSGRTFSTAAMGWFRQAPGKEREFVAAIRWSGGSAYYADSVKGRFTISRDKAKNTVYLQMNSLKYEDTAVYYCAQTRYTSSLLSDYATWPYDYWGQGTQVTVSS
- stoichiometry N [1]: 1

B5: H11-H6 (VHH)
VHH: QVQLVESGGGLMQAGGSLRLSCAVSGRTFSTAAMGWFRQAPGKEREFVAAIRWSGGSAYYADSVKGRFTISRDKAKNTVYLQMNSLKYEDTAVYYCAGSKITRSLLSDYATWPYDYWGQGTQVTVSS
- stoichiometry N [2]: 1

B6: H11-H4 Q98R H100E (D4 hybrid) (VHH)
VHH: QVQLVESGGGLMQAGGSLRLSCAVSGRTFSTAAMGWFRQAPGKEREFVAAIRWSGGSAYYADSVKGRFTISRDKAKNTVYLQMNSLKYEDTAVYYCARTEYVSYLLSDYATWPYDYWGQGTQVTVSS
- stoichiometry N [3]: 1
- stoichiometry N [2]: 1

B7: H11-H4 R52A (VHH)
VHH: QVQLVESGGGLMQAGGSLRLSCAVSGRTFSTAAMGWFRQAPGKEREFVAAIAWSGGSAYYADSVKGRFTISRDKAKNTVYLQMNSLKYEDTAVYYCAQTHYVSYLLSDYATWPYDYWGQGTQVTVSS
- binding result [4]: no binding (tested: 1 µM)

B8: H11-H4 R52E (VHH)
VHH: QVQLVESGGGLMQAGGSLRLSCAVSGRTFSTAAMGWFRQAPGKEREFVAAIEWSGGSAYYADSVKGRFTISRDKAKNTVYLQMNSLKYEDTAVYYCAQTHYVSYLLSDYATWPYDYWGQGTQVTVSS
- binding result [4]: no binding (tested: 1 µM)

B9: H11-H4 R52K (VHH)
VHH: QVQLVESGGGLMQAGGSLRLSCAVSGRTFSTAAMGWFRQAPGKEREFVAAIKWSGGSAYYADSVKGRFTISRDKAKNTVYLQMNSLKYEDTAVYYCAQTHYVSYLLSDYATWPYDYWGQGTQVTVSS
- binding result [4]: no binding (tested: 1 µM)

B10: nanobody H11-A10 (VHH)
VHH: QVQLVESGGGLMQAGGSLRLSCAVSGRTFSTAAMGWFRQAPGKEREFVAAIRWSGGSAYYADSVKGRFTISRDKAKNTVYLQMNSLKYEDTAVYYCAGFSATRSLLSDYATWPYDYWGQGTQVTVSS
- Kd [5]: 0.06 ± 0.0046 µM
- dH [5]: -83 kJ/mol

B11: nanobody H11-H4 Y104S (VHH)
VHH: QVQLVESGGGLMQAGGSLRLSCAVSGRTFSTAAMGWFRQAPGKEREFVAAIRWSGGSAYYADSVKGRFTISRDKAKNTVYLQMNSLKYEDTAVYYCAQTHYVSSLLSDYATWPYDYWGQGTQVTVSS
- Kd [5]: 0.409 ± 0.091 µM
- dH [5]: -46 kJ/mol

B12: nanobody H11 V101Y R103S (VHH)
VHH: QVQLVESGGGLMQAGGSLRLSCAVSGRTFSTAAMGWFRQAPGKEREFVAAIRWSGGSAYYADSVKGRFTISRDKAKNTVYLQMNSLKYEDTAVYYCAQTRYTSSLLSDYATWPYDYWGQGTQVTVSS
notes: also called double mutant A101Y, R103S
- Kd [5]: 5.22 µM
- dH [5]: -46 kJ/mol

B13: nanobody H11-H4 Q98R H100E (D4 hybrid) (VHH)
VHH: QVQLVESGGGLMQAGGSLRLSCAVSGRTFSTAAMGWFRQAPGKEREFVAAIRWSGGSAYYADSVKGRFTISRDKAKNTVYLQMNSLKYEDTAVYYCARTEYVSYLLSDYATWPYDYWGQGTQVTVSS
notes: also called H4-D4 hybrid; hybrid nanobody
- Kd [6]: 0.021 ± 0.003 µM
- dH [6]: -62 kJ/mol
- t1/2 (biotinylated RBD): 29 s
- Kd [5]: 0.018 ± 0.001 µM
- dH [5]: -69 kJ/mol

B14: nanobody H11 (VHH)
VHH: QVQLVESGGGLMQAGGSLRLSCAVSGRTFSTAAMGWFRQAPGKEREFVAAIRWSGGSAYYADSVKGRFTISRDKAKNTVYLQMNSLKYEDTAVYYCAQTRVTRSLLSDYATWPYDYWGQGTQVTVSS
notes: also called parent H11; parent nanobody
- binding result [7]: binds

B15: nanobody F2 (VHH)
VHH: QVQLVESGGGLVQAGGSLRLACIASGRTFHSYVMAWFRQAPGKEREFVAAISWSSTPTYYGESVKGRFTISRDNAKNTVYLQMNRLKPEDTAVYFCAADRGESYYYTRPTEYEFWGQGTQVTVSS
- binding result [7]: binds

B16: nanobody H11-H6 (VHH)
VHH: QVQLVESGGGLMQAGGSLRLSCAVSGRTFSTAAMGWFRQAPGKEREFVAAIRWSGGSAYYADSVKGRFTISRDKAKNTVYLQMNSLKYEDTAVYYCAGSKITRSLLSDYATWPYDYWGQGTQVTVSS
- Kd [5]: 0.057 ± 0.0045 µM
- dH [5]: -80 kJ/mol

B17: nanobody H11-B5 (VHH)
VHH: QVQLVESGGGLMQAGGSLRLSCAVSGRTFSTAAMGWFRQAPGKEREFVAAIRWSGGSAYYADSVKGRFTISRDKAKNTVYLQMNSLKYEDTAVYYCASYQATRSLLSDYATWPYDYWGQGTQVTVSS
- Kd [5]: 0.053 ± 0.0053 µM
- dH [5]: -68 kJ/mol
